Among the data in patent US20090068202A1 (Genentech, published 2009) are Kd values, retold here.

No end group written: not given here.

The target in assay [1] is T1, extracellular domain of human CD79b (huCD79becd) (human, UniProt P40259 29-159).
T1 construct: Expressed in CHO cells
T1 sequence: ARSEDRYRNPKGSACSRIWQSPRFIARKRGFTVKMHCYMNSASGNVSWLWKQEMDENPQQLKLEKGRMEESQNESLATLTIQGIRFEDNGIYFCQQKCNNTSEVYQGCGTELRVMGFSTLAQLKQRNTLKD
Put plainly: Biacore surface plasmon resonance; huCD79becd immobilized on CM5 chip, IgG injected. As to the method:
(§1) Binding of Fab and IgG variants of ch2F2, the 2F2-grafted “humanized” antibody (hu2F2 graft) or 2F2-grafted “humanized” antibody variant 7 (hu2F2.D7) to immobilized huCD79becd or CD79b-Fc or the 16 amino acid peptide containing the epitope for 2F2 was measured by surface plasma resonance. Affinity determinations were performed by surface plasmon resonance using a BIAcore™-2000. The antigen, huCD79becd or huCD79b-Fc was immobilized (approximately 50-200 RU) in 10 mM sodium acetate pH 4.8 on a CM5 sensor chip. In experiments that measured binding to the 16 amino acid peptide ([…]) (SEQ ID NO: 78) containing the epitope (amino acids 1-11 of SEQ ID NO: 78) for 2F2, the biotinylated peptide was captured (approximately 20 RU) on a streptavidin coated sensor chip. Purified 2F2-grafted “humanized” antibody variant (as Fab or IgG) (a 2-fold serial dilution of 0.5 to 1000 nM in PBST) was injected at a flow rate of 30 μL/min. Each sample was analyzed with 4-minute association and 10-minute disassociation. After each injection the chip was regenerated using 10 mM Glycine pH 1.7.
(§2) Binding response was corrected by subtracting a control flow cell from 2F2-grafted “humanized” antibody variant (as Fab or IgG) flow cells. A 1:1 Languir model of simultaneous fitting of kₒₙ and koff was used for kinetics analysis.
On the technique in general: In SPR one partner is held on a chip, and binding of the other changes the refractive index at the surface.

The target of assay [2] is T2, extracellular domain of human CD79b fused to Fc (huCD79becd-Fc) (human, UniProt P40259 29-159).
T2 construct: Expressed in CHO cells; also called huCD79b-Fc; CD79b-Fc
T2 sequence: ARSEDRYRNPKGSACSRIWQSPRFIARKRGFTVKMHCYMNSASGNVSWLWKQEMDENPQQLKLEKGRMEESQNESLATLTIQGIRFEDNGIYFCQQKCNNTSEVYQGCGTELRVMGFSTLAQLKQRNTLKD
Put plainly: Biacore surface plasmon resonance; huCD79becd-Fc immobilized on CM5 chip, IgG injected. As to the method:
as §1, §2

Assay [3] has as its target T3, 16 amino acid peptide (ARSEDRYRNPKGSACK) containing the epitope for 2F2 (human, also: biotinylated, site not given here).
T3 construct: Synthetic peptide; Captured as biotinylated peptide on a streptavidin sensor chip; also called 16mer peptide; test peptide
T3 peptide: ARSEDRYRNPKGSACK
Nature of the assay: Biacore surface plasmon resonance; biotinylated peptide captured on streptavidin chip, IgG injected; the sheet names the antigen '15mer peptide', legend and text name only the 16mer peptide (SEQ ID NO: 78). As to the method:
as §1, §2

The target in assay [4] is T4, human CD79b on BJAB cells (human, UniProt P40259 29-229).
T4 construct: Endogenous CD79b of BJAB cells; also called PRO36249; endogenous human-CD79b
T4 sequence: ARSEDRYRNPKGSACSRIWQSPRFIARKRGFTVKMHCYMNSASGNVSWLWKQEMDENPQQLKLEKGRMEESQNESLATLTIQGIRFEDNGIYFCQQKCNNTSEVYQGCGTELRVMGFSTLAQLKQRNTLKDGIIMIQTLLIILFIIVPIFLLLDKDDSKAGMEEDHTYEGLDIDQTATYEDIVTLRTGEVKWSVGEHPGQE
Nature of the assay: Scatchard analysis, I-125 tracer competed by unlabeled IgG on BJAB cells stably expressing cynomolgus CD79b and endogenous human CD79b; ch2F2 IgG; BJAB cells stably expressing cynomolgus CD79b and endogenous human CD79b. As to the method:
(§3) To further determine binding of the IgG variants of the 2F2-graft “humanized” antibody variant 7 (hu2F2.D7) having changes in HVR-L3, binding of iodinated anti-CD79b (with the same epitope as ch2F2) to BJAB cells expressing human CD79b and cynomologous CD79b using competition with unlabeled ch2F2 was analyzed and Scatchard analysis was performed.
(§4) For Scatchard analysis, 0.5 nM I¹²⁵ labeled anti-human CD79b with the same epitope as ch2F2 or 0.5 nM I¹²⁵ labeled 2F2-graft “humanized” antibody variant 7 (hu2F2.D7) was competed against unlabeled ch2F2 or hu2F2.D7, respectively, ranging from 50 to 0.02 nM (12 step 1:2 serial dilution) in the presence of a transfected BJAB line stably expressing cynomologous-CD79b and endogenous human-CD79b. After a four hour incubation at 4° C., cells were washed and cell pellet counts were read by a gamma counter (1470 WIZARD Automatic Gamma Counter; Perkin Elmer, Walthem, Mass.). All points were done in triplicate and counted for 10 minutes. The average CPM was used for Kd calculation using the New Ligand (Genentech, South San Francisco, Calif.) program.

Assay [5] has as its target T1, extracellular domain of human CD79b …. Put plainly: Biacore surface plasmon resonance; huCD79becd immobilized on CM5 chip, Fab injected. How it is done: as §1, §2
In assay [6] the target is T3, 16 amino acid peptide …. Nature of the assay: Biacore surface plasmon resonance; biotinylated 16mer peptide captured on streptavidin chip, IgG injected. As to the method: as §1, §2
Assay [7] addresses T4, human CD79b on BJAB cells. Nature of the assay: Scatchard analysis, I-125 hu2F2.D7 competed by unlabeled hu2F2.D7 IgG on BJAB cells stably expressing cynomolgus CD79b and endogenous human CD79b; hu2F2.D7 reformatted as IgG; BJAB cells stably expressing cynomolgus CD79b and endogenous human CD79b. As to the method:
as §3, §4

B1: chimeric 2F2 antibody (ch2F2) IgG1 (antibody, V domains shown)
VH: QVQLQQPGAELVRPGASVKLSCKASGYTFTSYWMNWVKQRPGQGLEWIGMIDPSDSETHYNHIFKDKATLTVDKSSSTAYLQLSSLTSEDSAVYYCARNLYLWGQGTSVTVSL
VL: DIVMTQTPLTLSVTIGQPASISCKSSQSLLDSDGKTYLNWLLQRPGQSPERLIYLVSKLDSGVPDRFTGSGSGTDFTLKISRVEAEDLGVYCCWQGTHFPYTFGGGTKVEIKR
In general, Kd refers to a measure of binding affinity in units of concentration. Low readings indicate tighter binding, high ones weaker binding. For B1, the dissociation constant (Kd) in assay [1] came to 1.4 nM; in assay [2], 2.7 nM; in assay [3], 2 nM; in assay [4], 0.99 nM.

B2: hu 2F2.D7 (Fab column) (Fab, V domains shown)
VH: EVQLVESGGGLVQPGGSLRLSCAASGYTFTSYWMNWVRQAPGKGLEWVGMIDPSDSETHYNHIFKDRFTISADTSKNTAYLQMNSLRAEDTAVYYCARNLYLWGQGTLVTVSS
VL: DIQMTQSPSSLSASVGDRVTITCKSSQSLLDSDGKTYLNWYQQKPGKAPKLLIYLVSKLDSGVPSRFSGSGSGTDFTLTISSLQPEDFATYYCFQGTHFPFTFGQGTKVEIKR
notes: also called 2F2-grafted humanized antibody variant 7 as purified Fab; copies: 1 + 1
The molecule B2 had a Kd in assay [5] of 68 nM.

B3: 2F2-grafted "humanized" antibody variant 7 (hu2F2.D7), reformatted as IgG (antibody, V domains shown)
VH: EVQLVESGGGLVQPGGSLRLSCAASGYTFTSYWMNWVRQAPGKGLEWVGMIDPSDSETHYNHIFKDRFTISADTSKNTAYLQMNSLRAEDTAVYYCARNLYLWGQGTLVTVSS
VL: DIQMTQSPSSLSASVGDRVTITCKSSQSLLDSDGKTYLNWYQQKPGKAPKLLIYLVSKLDSGVPSRFSGSGSGTDFTLTISSLQPEDFATYYCFQGTHFPFTFGQGTKVEIKR
notes: also called humanized 2F2.D7
As for B3, the Kd in assay [1] was found to be 3.9 nM; in assay [6], 2.7 nM; in assay [7], 2 nM.
